Results on 23 molecules are retold here after patent US20220195015A1 (published 2022).

Where a chain is given by its changes, count along the chain named.

B1: C048 (antibody, V domains shown)
VH: VQLQESGPGLVKPSETLSLTCAVSGGSVSSGNYYWNWIRQPPGKGLEWIGYIYYSGSTNYNPSLKSRVTISVDTSKNQFSLKLNSVTAADTAVYHCARETYYYDSSGYYISDAFDIWGQGTMVTVSS
VL: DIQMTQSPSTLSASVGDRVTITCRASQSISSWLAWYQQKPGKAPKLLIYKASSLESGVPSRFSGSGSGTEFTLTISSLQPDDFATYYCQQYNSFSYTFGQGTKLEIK
B2: C049 (antibody, V domains shown)
VH: QVQLQESGPGLVKPSETLSLTCTVSGGSVSSGTFYWSWIRQPPGKGLEWIGYIHYSGSTNYNPSLKSRVTISVDTSKNQFSLRLSSVTAADTAVYYCARESFYYDRSGYYGSDAFDIWGQGTMVTVSS
VL: DIQMTQSPSTLSSSVGDRVTITCRASQNISRWLAWYQQKPGKAPKLLIYKASTLESGVPSRFSGSGSGTKFTLTISSLQPDDFATYYCQQYNSYLYTFGQGTKLEIK
B3: C586 (antibody, V domains shown)
VH: EVQLVESGGGLIQPGGSLRLSCTASGLIVSSNYMSWIRQAPGKGLEWVSLIYSGGSTFYADSVKGRFTISRDNSKNTLFLHMNSLRAEDTAVYYCARHPYGTDVWGQGTTVTVSS
VL: DIQMTQSPSSLSASVGDRVTITCQASQDIVKYLNWYQQKSGKAPKLLIHDASNLETGVTSRFSGSGSGTHFTFTISSLQPEDLATYYCQQYDNLPITFGQGTRLEIK
B4: C582 (antibody, V domains shown)
VH: QVQLVESGGGVVQPGRSLRLSCVASGFTFSYFDMHWVRQAPGKGLEWVALISHDGSTTFYGDSARGRFTISRDNSRNTLDLQMNSLRPEDTAVYFCAKPVDAAMFDFWGQGTLVTVS
VL: SYELTQPPSVSVAPGKTARITCGGNNIGSKSVHWYQQRPGQAPVLVIYYDSDRPSGIPERFSGSNSGNTATLTISRVEAGDEADFYCQVWDRSTNHLVVFGGGTQLTVL
B5: C583 (antibody, V domains shown)
VH: EVQLVESGGGLIQPGGSLRLSCAASILTVSRNYMSWVRQAPGKGLEWVSSIYSGGTTYYADSVKGRFTISRDDSKNTLYLQMNSLRAEDTAVYYCARPVVGGRAGMDVWGQGTTVTVSS
VL: DIQMTQSPSSLSASVGDRVTITCQASQDINKYLNWYQQKPGKAPKLLIYDASNLETGVPSRFSGSGSGTDFTFTISSLQPEDIGTFYCLHNDNPPLTFGGGTKVEIK
B6: C585 (antibody, V domains shown)
VH: QVQLQESGPGLVKPSETLSLTCTVSGDSISSYFWSWIRQPPGRGLEWIGYIHDSVNTNYNPSLKSRVTISVDTSKSQFSLRLSSVTAADTAVYYCARCAWLRGSFDYWGQGTLVTVSS
VL: NFMLTQPHSVSESPGKTVTISCTGSSGSIASNYVQWYQQRPGSAPTTVIYEDNQRPSGVPDRFSGSIDSSSNSASLTISGLKTEDEADYYCQSYDFSSHYVFGTGTKVTVL
B7: C584 (antibody, V domains shown)
VH: EVQLVESGGGLVQPGGSLRLSCAASGFTFSTYDMHWVRQATGKGLEWVSAIGTAGDKYYPGSVKGRFTISRENAKNSLYLQMNSLRAGDTAVYYCVRAGYSSGWPLYWYFDLWGRGTLVTVSS
VL: DIQMTQSPSSLSASVGDRVTITCRASQSISSYLNWYQQKPGKAPKFLIYAASSLQSGVPSRFSGSGSGTDFTLTISNLQPEDFATYYCQQSYRTPPEFTFGPGTKVDIK
B8: C587 (antibody, V domains shown)
VH: QVQLVQSGAEVKKSGSSVKVSCKASGGSFSSYAISWVRQAPGQGLEWMGGIIPIFGTAKYAQKFQGRVTITADESTSTAYMELSSLRSEDTAVYYCASRWEQLNGGSWHYFDYWGQGTLVTVSS
VL: QSALTQPASVSGSPGQSITISCTGTRSDVGRNNLVSWYQHHPGKAPKVMIYEGSKRPSGVSTRFSGSKSGNTASLTISGLQAEDEADYYCCSYAGSSTFEGVFGGGTKLTVL
B9: C590 (antibody, V domains shown)
VH: QVQLVQSGAEVKKPGASVKVSCKVSGYNLTELSMYWVRQAPGKGLEWMGGFDPEDGGPIHAQKFQGRVTMTEDPSTDTAYMELRSLRSEDTALYYCATGGLFMIRGLEIWGRGTLVTVSS
VL: EIVLTQSPGTLSLSPGERATLSCRASQSISYTSLAWYQQKPGQAPRLLIFGASRGATGTPDRFSGSWSGTDFTLTISRLEPEDFAVYYCQQYGNSPRLSFGGGTKVEIK
B10: C591 (antibody, V domains shown)
VH: QVQLVQSGAEVKKPGASVKVSCKASGYILTDYFIHWVRQAPGQGLEWMGWINPNSGGTNYAQKFQGRVTMTRDTSISTAYMELSRLRSDDTAVYHCARYKGTTVNTNYYYGMDVWGQGTTVTVSS
VL: not shown
B11: C592 (antibody, V domains shown)
VH: B10 VH with I28T, L29F, I34N, Y60S, S77T, A79V, H95Y
VL: SYELTQPPSVSVSPGQTASITCSGDKLRNKYACWYQQKAGQSPMLVIYQDTKRPSGIPERFSGSNSGNTATLTISGTQAMDEADYYCQAWDISTVVFGGGTKLTVL
B12: C586 (antibody, V domains shown)
VH: B3 VH
VL: B3 VL
B13: C582 (antibody, V domains shown)
VH: B4 VH
VL: B4 VL
B14: C583 (antibody, V domains shown)
VH: B5 VH
VL: B5 VL
B15: C596 (antibody, V domains shown)
VH: QVQLVESGGGVVQPGRSLRLSCAASGITFSHYGMHWVRQAPGKGLEWVALISSDGSKKYYADSVKGRFTISRDNSKSTLYLQMNSLRAEDTAIYYCAKDLGYYYGPPYGPDYWGQGTLVTVSS
VL: DIQMTQSPSSLSASVGDRVTITCQASQDVSNSLNWYQQKPGKAPKLLIYDASNLETGVPSRFSGSGSGTDFSFTISSLQPEDIATYYCLQYDNFSMYTFGQGTKLEIK
B16: C585 (antibody, V domains shown)
VH: B6 VH
VL: B6 VL
B17: C588 (antibody, V domains shown)
VH: EVQLVESGGGLVQPGGSLKLSCAASGFTFSGSAMHWVRQASGKGLEWVGRIRNKANSYATAYGASVRGRFTVSRDDSKNTAYLQMNSLKIEDTAVYYCTKDIAAGIPALNWFDSWGQGTLVTVSS
VL: EIVLTQSPATLSLSPGERATLSCRASQSVSSYLAWYQQKPGQAPRLLIYDASNRATGIPARFSGSGSGTDFTLTISSLEPEDFAVYYCQQHTNWPPRITFGGGTKVEIK
B18: C584 (antibody, V domains shown)
VH: B7 VH
VL: B7 VL
B19: C589 (antibody, V domains shown)
VH: QVQLQESGPGLVKPSQTLSLTCTVSGGSISSGDYYWSWIRQPPGKGLEWIGYIYYSGSTNYNPSLRSRVTISVDTSKNQFSLRLRSVTAADTAVYYCARDAIGSASYGVEYFQHWGQGTLVTVSS
VL: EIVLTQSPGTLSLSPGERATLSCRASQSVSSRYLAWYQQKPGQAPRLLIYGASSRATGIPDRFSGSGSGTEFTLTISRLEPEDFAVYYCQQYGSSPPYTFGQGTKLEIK
B20: C594 (antibody, V domains shown)
VH: QVQLVESGGGVVQPGRSLRLSCAASGFTFSSYGMHWVRQAPGKGLEWVAVISDDGSNKYYADSVKGRFTISRDNSKNTLYLQMNSLRAEDTAVYYCAKSWWLSENWFDPWGQGTLVTVSS
VL: EIVMTQSPATLSVSPGERATLSCRASQSVSSNLAWYQQKPGQAPRLLIYGASTRATGIPARFSGTGSGTEFTLTISSLQSEDFAVYYCQQYNNWPLTFGGGTKVEIK
B21: C595 (antibody, V domains shown)
VH: B20 VH with P14A, Y32F, M34L, S56A, E89D, V93K
VL: B20 VL with S30R, T65S, E70D
B22: C587 (antibody, V domains shown)
VH: B8 VH
VL: B8 VL
B23: C593 (antibody, V domains shown)
VH: QVQLVQSGAEVKKPGASVKVSCKASGYTFTSYDINWVRQAPGQGLEWMGWMNPNSGNTDYAQKFQGRFTMTRNTSISTAYMELSSLRSEDTAVYYCASRRWDPLTFYYYMVVWGKGTTVTVSS
VL: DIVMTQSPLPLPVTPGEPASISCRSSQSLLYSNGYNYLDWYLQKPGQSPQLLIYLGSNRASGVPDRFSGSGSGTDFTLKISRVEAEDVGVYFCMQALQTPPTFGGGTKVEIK

In the first assay the target is SARS-CoV-2 spike protein on HIV-1 pseudotyped particles (SARS-CoV-2, UniProt P0DTC2 14-1254). Briefly: cell-based or functional assay.
B1: the “Neutralization IC50” value turned out to be 62.2 ng/mL and the “Neutralization IC90” value worked out at 523 ng/mL.
On the same counts, the results for B2 are 18.1 ng/mL and 129 ng/mL.

The target of a further assay is SARS-CoV-2 RBD (S protein residues 319-539), wild type (SARS-CoV-2, UniProt P0DTC2 319-539). Briefly: ELISA, RBD coated on plate, mAb titrated. On the technique in general: An ELISA detects its analyte on a solid surface through an enzyme-linked reagent.
Broadly, the EC50 is the concentration giving half of the maximal effect. A high value points to a need for much substance. B3 returned a concentration for a half-maximal effect (EC50) of 5.42 ng/mL.
Same read-out and setting: next, B4: 8.43 ng/mL.
Same read-out and setting: next, B5: 4.42 ng/mL; B6: 11 ng/mL; B7: 10.5 ng/mL.
Take B8: the EC50 was 4.39 ng/mL.

For the next assay, the target named is SARS-CoV-2 receptor binding domain (RBD), wild type (SARS-CoV-2, UniProt P0DTC2 319-539). Nature of the assay: ELISA, RBD coated on the plate, antibody titrated.
Consider B9, for which the response was half-maximal at 2.81 ng/mL (EC50).
Still for that read-out and setting: next, B10: 3.83 ng/mL.
The same measure, in the same setting: as for B11, the figure is 6 ng/mL; as for B12, 5.42 ng/mL.
On the same count and under the same terms, next, B13: 8.43 ng/mL; B14: 4.42 ng/mL; B15: 21 ng/mL.
In the case of B16, the response was half-maximal at 11 ng/mL (EC50).
Still for that read-out and setting: next, B17: 1.36 ng/mL; B18: 10.5 ng/mL; B19: 6.61 ng/mL.
Same read-out and setting: as for B20, the figure is 2.63 ng/mL.
Same read-out and setting: as for B21, the figure is 2.04 ng/mL; as for B22, 4.39 ng/mL; as for B23, 4.36 ng/mL.
